To fix the notation:
B1: DDR1 mutant [human] / itself (parent)
chain: DADMKGHFDPAKCRYALGMQDRTIPDSDISASSSWSDSTAARHSRLESSDGDGAWCPAGSVFPKEEEYLQVDLQRLHLVALVGTQGRHAGGLGKEFSRSYRLRYSRDGRRWMGWKDRWGQEVISGNEDPEGVVLKDLGPPMVARLVRFYPRADRVMSVCLRVELYGCLWRDGLLSYTAPVGQTMYLSEAVYLNDSTYDGHTVGGLQYGGLGQLADGVVGLDDFRKSQELRVWPGYDYVGWSNHSFSSGYVEMEFEFDRLRAFQAMQVHSNNMHTLGARLPGGVECRFRRGPAMAWEGEPMRHNLGGNLGDPRARAVSVPLGGRVARFLQCRFLFAGPWLLFSEISFISDVVNNSSPALGGTFPPAPWWPPGPPPTNFSSLELEPRGQQPVAKAEGSPTAILIGCLVAIILLLLLIIALMLWRLHWRRLLSKAERRVLEEELTVHLSVPGDTILINNRPGPREPPPYQEPRPRGNPPHSAPCVPNGSALLLSNPAYRLLLATYARPPRGPGPPTPAWAKPTNTQAYSGDYMEPEKPGAPLLPPPPQNSVPHYAEADIVTLQGVTGGNTYAVPALPPGAVGDGPPRVDFPRSRLRFKEKLGEGQFGEVHLCEVDSPQDLVSLDFPLNVRKGHPLLVAVKILRPDATKNARNDFLKEVKIMSRLKDPNIIRLLGVCVQDDPLCMITDYMENGDLNQFLSAHQLEDKAAEGAPGDGQAAQGPTISYPMLLHVAAQIASGMRYLATLNFVHRDLATRNCLVGENFTIKIADFGMSRNLYAGDYYRVQGRAVLPIRWMAWECILMGKFTTASDVWAFGVTLWEVLMLCRAQPFGQLTDEQVIENAGEFFRDQGRQVYLSRPPACPQGLYELMLRCWSRESEQRPPFSQLHRFLAEDALNTV

Variants of B1 are the subject of the test. The test is described as follows: disulfide cross-linking, nonreducing SDS-PAGE and Western blotting with anti-DDR1 antibodies. The note with it: transiently transfected HEK293 cells, lysed in 30 mM NEM, read off a plot.
Where [1] appears, read: 10 μg/ml collagen I for 90 min at 37 °C.

Take chain 1 L405C C404A: the screen value reads like this: under setting [1], 4.5%; (unstimulated) 3.5%.

On to chain 1 I402C, for which the screen value under setting [1] was found to be 62% and the screen value (unstimulated) is 65%.

Consider chain 1 P397C, for which the screen value runs as follows: under setting [1], 81%; (unstimulated) 82%.

Turning to chain 1 K392C, the screen value under setting [1] amounted to 76% and the screen value (unstimulated) was determined as 81%.

Consider chain 1 V390C C404A, for which the screen value under setting [1] worked out at 85%.

As for chain 1 C404A, the screen value (unstimulated) came out at 4.5%.

With chain 1 G395C, the screen value (unstimulated) came out at 73%.

chain 1 V390C: the screen value is, setting by setting: under setting [1], 82%; (unstimulated) 83%.

With chain 1 E394C, the screen value reads like this: under setting [1], 72%; (unstimulated) 75%.

Consider chain 1 S396C, for which the screen value under setting [1] is 82% and the screen value (unstimulated) amounted to 84%.

As to chain 1 L401C, the screen value was 61% under setting [1] and 60% (unstimulated).

chain 1 A391C: the screen value under setting [1] is 80% and the screen value (unstimulated) stood at 81%.

Regarding chain 1 E394C C404A, the screen value is, setting by setting: under setting [1], 81%; (unstimulated) 83%.

With chain 1 I400C, the screen value was 56% under setting [1] and 60% (unstimulated).

On to chain 1 L405C, for which the screen value stood at 3.5% under setting [1] and 5% (unstimulated).

As to chain 1 G403C C404A, the screen value worked out at 35% under setting [1] and 37% (unstimulated).

Regarding chain 1 A393C, the screen value by setting is: under setting [1], 81%; (unstimulated) 84%.

As to chain 1 G403C, the screen value under setting [1] came out at 30% and the screen value (unstimulated) came to 32%.

For the variant chain 1 A399C, the screen value runs as follows: (10 μg/ml collagen I for 90 min at 37 °C, dimeric plus higher oligomeric forms) 59%; under setting [1], 59%; (unstimulated, dimeric plus higher oligomeric forms) 61%; (unstimulated) 61%.

chain 1 T398C: the screen value came to 93% under setting [1] and 94% (unstimulated).

For the origin of these results see PMC4036362, “Normal Activation of Discoidin Domain Receptor 1 Mutants with Disulfide Cross-links, Insertions, or Deletions in the Extracellular Juxtamembrane Region” (The Journal of Biological Chemistry, 2014).
